For test [1], the target named is DC-Specific ICAM-3 Grabbing Non-integrin (DC-SIGN) (human) (UniProt Q9NNX6). In words: flow cytometry on COS7 cells transfected with DC-SIGN cDNA.
For test [2] the target is unchanged. Description: cell-based or functional assay.
Test [3] shares this target. In words: flow cytometry on DC day 7; meaning of the grade from the table's footnote.
The target in test [4] is T1, DC-Specific ICAM-3 Grabbing Non-integrin (DC-SIGN) (human, UniProt Q9NNX6 1-404).
T1 construct: Type II membrane protein of 404 aa, on monocyte-derived DC or on COS7 cells transfected with pRc/CMV-DC-SIGN; in immunoprecipitation and pull-down it came from DC lysate; also called C-type lectin on dendritic cells
T1 sequence: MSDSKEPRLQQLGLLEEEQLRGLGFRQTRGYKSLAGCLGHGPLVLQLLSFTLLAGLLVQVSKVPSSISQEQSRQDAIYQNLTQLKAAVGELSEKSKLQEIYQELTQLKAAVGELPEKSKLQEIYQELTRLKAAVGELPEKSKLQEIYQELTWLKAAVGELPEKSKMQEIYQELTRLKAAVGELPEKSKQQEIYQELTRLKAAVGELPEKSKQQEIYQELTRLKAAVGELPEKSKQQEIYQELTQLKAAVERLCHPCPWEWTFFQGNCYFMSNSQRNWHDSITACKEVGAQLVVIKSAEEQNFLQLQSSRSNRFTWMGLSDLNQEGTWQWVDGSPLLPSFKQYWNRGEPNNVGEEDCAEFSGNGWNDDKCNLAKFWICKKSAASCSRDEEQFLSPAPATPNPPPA
Description: binding to K562 transfectants (FIG. 8).

Some results are limits rather than exact numbers.

For AZN-D1 (antibody), the percent of transfected cells stained in test [1] was 30%. In test [2], the DC-T cell clustering (percentage of DC which have bound fluorescent T cells) amounted to 50%; the HIV-1 replication (p24 Gag) in DC-T cell co-culture, DC pre-incubated with antibody before the HIV-1 pulse was greater than 75%; the T-lymphocyte proliferation induced by allogeneic DC ([3H]methyl-thymidine uptake) is greater than 75%. Moreover, the mean fluorescence in test [3] is greater than 400.

In test [2], AZN-D2 (antibody) showed a DC-T cell clustering (percentage of DC which have bound fluorescent T cells) of 50%; an HIV-1 replication (p24 Gag) in DC-T cell co-culture, DC pre-incubated with antibody before the HIV-1 pulse greater than 75%; a T-lymphocyte proliferation induced by allogeneic DC ([3H]methyl-thymidine uptake) greater than 75%.

B1: ICAM-2 expressed on K562 cells (ligand, UniProt P13598 25-275, looked up)
chain: KVFEVHVRPKKLAVEPKGSLEVNCSTTCNQPEVGGLETSLDKILLDEQAQWKHYLVSNISHDTVLQCHFTCSGKQESMNSNVSVYQPPRQVILTLQPTLVAVGKSFTIECRVPTVEPLDSLTLFLFRGNETLHYETFGKAAPAPQEATATFNSTADREDGHRNFSCLAVLDLMSRGGNIFHKHSAPKMLEIYEPVSDSQMVIIVTVVSVLLSLFVTSVLLCFIFGQHLRQQRMGTYGVRAAWRRLPQAFRP
notes: whole, on cells
Turning to B1, in test [4], the binding result is “binds”.
